One block for each binder: values may come before it.
What was measured:
[1] = biological target: T1, chimeric recombinant human ACVR2B-Fc (human, UniProt Q13705 19-137); assay: SPR; Biacore T200; receptor-Fc captured on a Protein A sensor chip (~70 RU); rhGDF3 flowed over, two-fold dilutions 12.5 nM-0.391 nM; 20 mM HEPES pH 7.4, 350 mM NaCl, 3.4 mM EDTA, 0.05% P-20, 0.5 mg/ml BSA, 25 °C; 1:1 fit model with mass transport limitations; settings: both partners purified
T1 construct: activin receptor type 2B (ACVR2B), human, part fused to Fc; Probably the extracellular domain fused to Fc (surmised); also called rhACVR2B-Fc; rhACVR2B
T1 sequence (looked up): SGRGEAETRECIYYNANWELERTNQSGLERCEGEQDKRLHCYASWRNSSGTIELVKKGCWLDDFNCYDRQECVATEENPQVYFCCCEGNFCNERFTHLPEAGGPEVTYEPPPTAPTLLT

[2] = biological target: T2, Fc-chimera of the human type II BMP receptor (rhBMPR2-Fc) (human, UniProt Q13873 27-150); assay: as above; settings: both partners purified
T2 construct: type II BMP receptor BMPR2, human, part fused to Fc; Probably the extracellular domain fused to human IgG1 Fc (surmised); also called rhBMPRII-Fc; BMPRII
T2 sequence (looked up): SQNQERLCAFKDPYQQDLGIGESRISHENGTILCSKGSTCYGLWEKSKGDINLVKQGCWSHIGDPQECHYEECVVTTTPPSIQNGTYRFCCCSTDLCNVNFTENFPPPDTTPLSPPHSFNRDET

[3] = biological target: T3, chimeric recombinant human ACVR2A-Fc (human, UniProt P27037 20-135); assay: as above; settings: both partners purified
T3 construct: activin receptor type 2A (ACVR2A), human, part fused to Fc; Probably the extracellular domain fused to Fc (surmised); also called rhACVR2A-Fc; rhACVR2A

[4] = biological target: T2, Fc-chimera of the human type II BMP …; assay: BLI; Gator Plus; capturing receptor (rhBMPR2-Fc) at 10 µg/mL on anti-human IgG Fc probes; GDF3 in solution (rhGDF3 50 nM; rmGDF3 25-100 nM); PBS, 1 mg/mL BSA, 0.1% Tween20, pH 7.4, 25 °C; settings: both partners purified
[5] = biological target: T2, Fc-chimera of the human type II BMP …; assay: ITC; Nano ITC Standard Volume; 250 ng/mL of rhBMPR2-Fc, rhBMP2, rmBMP4 or rhBMP9 titrated into 250 ng/mL of rmGDF3; 10 injections of 8 µL at 350 s intervals, 300 rpm; settings: both partners purified
[6] = biological target: T4, SB-431542-resistant rat ALK5 S278T (Alk5-ST) (rat, UniProt P80204 30-501, S278T); assay: cell-based or functional assay
T4 sequence (looked up): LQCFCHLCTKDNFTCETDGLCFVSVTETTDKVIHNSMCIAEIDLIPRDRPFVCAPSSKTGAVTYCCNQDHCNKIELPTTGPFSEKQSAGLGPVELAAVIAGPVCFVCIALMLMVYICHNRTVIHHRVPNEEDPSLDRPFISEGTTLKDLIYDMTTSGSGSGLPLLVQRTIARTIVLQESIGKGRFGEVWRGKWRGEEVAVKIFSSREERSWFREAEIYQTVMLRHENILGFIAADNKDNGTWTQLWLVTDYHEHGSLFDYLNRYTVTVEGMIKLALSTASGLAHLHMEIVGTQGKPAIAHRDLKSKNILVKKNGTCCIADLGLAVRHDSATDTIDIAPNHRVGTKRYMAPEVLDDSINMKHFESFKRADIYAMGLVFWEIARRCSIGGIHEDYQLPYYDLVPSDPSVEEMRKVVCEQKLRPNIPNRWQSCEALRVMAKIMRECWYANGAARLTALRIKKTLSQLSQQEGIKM

T3 sequence (P27037 20-135, change not shown): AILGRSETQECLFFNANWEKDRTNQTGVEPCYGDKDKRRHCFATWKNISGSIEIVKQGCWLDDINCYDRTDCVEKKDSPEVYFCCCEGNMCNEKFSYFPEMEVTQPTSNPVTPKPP

Kd [1]: 0.332 nM
koff [1]: 0.00038 s⁻¹
kon [1]: 2.12e+06 M⁻¹ s⁻¹
Kd [2]: 0.601 nM
koff [2]: 0.00149 s⁻¹
kon [2]: 2.19e+06 M⁻¹ s⁻¹
Kd [3]: 1.26 nM
koff [3]: 0.000405 s⁻¹
kon [3]: 1.21e+06 M⁻¹ s⁻¹
B1: recombinant human GDF3 (Growth Differentiation Factor 3) (ligand, UniProt Q9NR23 251-364, looked up)
chain: AAIPVPKLSCKNLCHRHQLFINFRDLGWHKWIIAPKGFMANYCHGECPFSLTISLNSSNYAFMQALMHAVDPEIPQAVCIPTKLSPISMLYQDNNDNVILRHYEDMVVDECGCG
notes: Growth Differentiation Factor 3, human, recombinant; also called rhGDF3; human rGDF3

Kd [4]: 13.1 nM
koff [4]: 0.00483 s⁻¹
kon [4]: 370000 M⁻¹ s⁻¹
Kd [5]: 811 nM
SBE-luciferase (CAGA12) reporter activity in HEK-293 cells expressing Alk5-ST, rmGDF3 0, 250, 500 or 1000 ng/mL with SB-431542 [6]: 70 fold
B2: recombinant mouse GDF3 (Growth Differentiation Factor 3) (ligand, UniProt Q07104 253-366, looked up)
chain: AAISVPKGFCRNFCHRHQLFINFQDLGWHKWVIAPKGFMANYCHGECPFSMTTYLNSSNYAFMQALMHMADPKVPKAVCVPTKLSPISMLYQDSDKNVILRHYEDMVVDECGCG
notes: Growth Differentiation Factor 3, mouse, recombinant; also called rmGDF3; mouse rGDF3; source: CHO cell-derived

— article PMC12075709, “Acute regulation of murine adipose tissue lipolysis and insulin resistance by the TGFβ superfamily protein GDF3” (Nature Communications, 2025)
